Test results published in patent publication US20200392227A1 (LYVGEN BIOPHARMA, published 2020).
Where two headings read alike, the source gives them in different places. One block for each binder: values may come before it.

Legend:
[1] = biological target: T1, human FcγRIIC expressed on CHO cells (human, UniProt P31995 43-323); test: FACS, CHO cells expressing FcγRIIC
T1 construct: whole, on cells
T1 sequence (looked up): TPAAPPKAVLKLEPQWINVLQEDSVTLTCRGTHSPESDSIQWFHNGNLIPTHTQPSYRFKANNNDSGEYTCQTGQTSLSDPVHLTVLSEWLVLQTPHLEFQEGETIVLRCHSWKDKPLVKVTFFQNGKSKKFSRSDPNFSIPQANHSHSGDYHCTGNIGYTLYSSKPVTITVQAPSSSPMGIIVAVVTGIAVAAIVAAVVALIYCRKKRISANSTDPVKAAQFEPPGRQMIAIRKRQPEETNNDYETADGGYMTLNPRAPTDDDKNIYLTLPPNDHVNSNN
Method: FIGS. 1A-1W are charts showing binding activity of various IgG variants as indicated to different types of Fcγ receptors expressed on CHO-K1 cells at the various concentrations as indicated. The concentrations of each IgG variant, from left to right, are 0 μg/ml, 0.3 μg/ml, 1 μg/ml, 3 μg/ml, and 10 μg/ml in FIGS. 1A-1C, 1E-J, 1L-1M, 1P-1R, and 1T-1V. For FIGS. 1D, 1K, 10, 1S, and 1w the bars, from left to right, correspond to the following concentrations of IgG variant: 0.3 μg/ml, 1 μg/ml, 3 μg/ml, and 10 μg/ml.
(§1) For FACS analysis of the IgG mutants' binding to different FcγRs, FcγR overexpressing CHO cells were harvested using trypsin-EDTA and were suspended in cold staining buffer (3% BSA in PBS). Test IgG mutants, which were diluted in staining buffer, were added into the cells. The mixture was incubated 4° C. for 2 hours, and then washed twice with cold staining buffer and re-suspended in PE-labeled anti-human IgG followed by incubation at 4° C. for 2 hours. The mixture was washed twice with staining buffer and re-suspended in 2% PFA in PBS for FACS.

[2] = biological target: T2, human FcRI protein (MednaBio, E1031) (human, UniProt P12314 16-288, limits assumed); test: BLI
T2 construct: Bought; loaded on anti-penta-HIS biosensors; also called FcγRI
T2 sequence (P12314 16-288 limits assumed): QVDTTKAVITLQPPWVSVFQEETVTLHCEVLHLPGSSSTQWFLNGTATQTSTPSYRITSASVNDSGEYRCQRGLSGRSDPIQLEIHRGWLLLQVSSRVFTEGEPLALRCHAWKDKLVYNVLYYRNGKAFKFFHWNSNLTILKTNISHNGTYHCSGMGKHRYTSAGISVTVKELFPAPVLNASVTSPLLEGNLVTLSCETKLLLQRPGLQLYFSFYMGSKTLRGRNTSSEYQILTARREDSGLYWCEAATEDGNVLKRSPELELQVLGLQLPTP
Outline: (§2)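 Binding was measured by biolayer interferometry on an Octet Red96 System, with commercial human Fc receptor proteins loaded at 20 μg/mL onto anti-penta-HIS biosensors. Sensors were dipped into an 8-point 1:3 dilution series of test IgG starting at 300 nM in PBS with 0.1% BSA and 0.02% Tween-20. Fcγ receptor assays ran at pH 7.2 and FcRn assays at pH 6. Kd, kon and koff came from global fitting to a 1:1 binding model.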

[3] = biological target: T3, human FcRIIIB protein (MednaBio, E1037) (human, UniProt O75015 17-200); test: BLI
T3 construct: Bought; also called FcγRIIIB; FcgRIIIB
T3 sequence (O75015 17-200 limits assumed): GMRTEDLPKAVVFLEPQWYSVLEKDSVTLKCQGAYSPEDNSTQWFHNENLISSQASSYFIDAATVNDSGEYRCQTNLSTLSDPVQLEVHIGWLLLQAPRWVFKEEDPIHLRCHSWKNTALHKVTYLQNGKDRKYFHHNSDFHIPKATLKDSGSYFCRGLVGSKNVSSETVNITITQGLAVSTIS
Outline: as §2

[4] = biological target: T4, human FcRIIIA-F158 protein (MednaBio, E1036) (human, UniProt P08637 17-208); test: BLI
T4 construct: Bought; also called FcγRIIIA(F)
T4 sequence (P08637 17-208 limits assumed): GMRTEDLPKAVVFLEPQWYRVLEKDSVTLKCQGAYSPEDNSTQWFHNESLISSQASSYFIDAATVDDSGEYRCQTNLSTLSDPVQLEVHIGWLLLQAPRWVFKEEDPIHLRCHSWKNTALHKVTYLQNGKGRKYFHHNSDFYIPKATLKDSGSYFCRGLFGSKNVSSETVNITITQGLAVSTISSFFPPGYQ
Outline: as §2

[5] = biological target: T5, human FcRIIB/C protein (MednaBio, E1034) (human, UniProt P31994 43-217, limits assumed); test: BLI
T5 construct: Bought as FcRIIB/C; also called FcγRIIB; CD32B
T5 sequence (looked up): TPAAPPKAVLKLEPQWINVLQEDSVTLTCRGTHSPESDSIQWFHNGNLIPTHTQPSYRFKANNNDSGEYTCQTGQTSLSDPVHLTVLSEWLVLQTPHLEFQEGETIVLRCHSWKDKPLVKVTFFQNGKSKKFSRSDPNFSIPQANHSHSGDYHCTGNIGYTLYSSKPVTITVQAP
Outline: as §2

[6] = biological target: T6, human FcRIIIA-V158 protein (MednaBio, E1035) (human, UniProt P08637 17-208); test: BLI
T6 construct: Bought; also called FcγRIIIA(V); FcgRIIIA(V)
T6 sequence (P08637 17-208 F176V): as the sequence (P08637 17-208 limits assumed) above, with F160V counted along it
Outline: as §2

[7] = biological target: T7, human FcRIIA protein (MednaBio, E1033) (human, UniProt P12318 34-218, limits assumed); test: BLI
T7 construct: Bought; also called FcγRIIA
T7 sequence (looked up): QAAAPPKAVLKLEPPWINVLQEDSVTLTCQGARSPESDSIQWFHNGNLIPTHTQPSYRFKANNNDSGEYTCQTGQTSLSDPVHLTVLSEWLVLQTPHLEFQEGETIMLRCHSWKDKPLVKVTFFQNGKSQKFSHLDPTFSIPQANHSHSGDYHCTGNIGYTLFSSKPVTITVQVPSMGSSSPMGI
Outline: as §2

[8] = biological target: T8, human FcRn protein (MednaBio, E1032) (human, UniProt P55899 24-297; P61769 21-119); test: BLI
T8 construct: Bought; assays at pH 6
Outline: as §2

[9] = biological target: T2, human FcRI protein (MednaBio, E1031); test: BLI; remark: listed apart in the source
Method: (§3) These IgG mutants were tested for binding to a panel of human Fc receptors (FcRs), including FcRn, using the Octet Red96 System (ForteBio, Model #Red96). Human FcR proteins were purchased commercially (FcRn, MednaBio, E1032; FcRI, MednaBio, E1031; FcRIIA, MednaBio, E1033; FcRIIB/C, MednaBio, E1034; FcRIIIA-F158, MednaBio, E1036; FcRIIIA-V158, MednaBio, E1035; FcRIIIB, MednaBio, E1037). All Fey receptor assays were performed at pH 7.2; all FcRn assays were performed at pH 6. The Fey receptors were loaded onto anti-penta-HIS1K (ForteBio, Cat #18-5122) biosensors at a concentration of 20 μg/mL. The loaded biosensors was then be dipped into an 8-point 1:3 dilution series of the test IgG molecules (including controls and the mutants described herein) in PBS with 0.1% BSA, 0.02% Tween-20 (pH 7.2) at a starting concentration of 300 nM. Kinetic analysis was performed using a 1:1 binding model and global fitting.

[10] = biological target: T3, human FcRIIIB protein (MednaBio, E1037); test: BLI; remark: listed apart in the source
Method: as §3

[11] = biological target: T4, human FcRIIIA-F158 protein (MednaBio, …); test: BLI; remark: listed apart in the source
Method: as §3

[12] = biological target: T5, human FcRIIB/C protein (MednaBio, E1034); test: BLI; remark: listed apart in the source
Method: as §3

[13] = biological target: T6, human FcRIIIA-V158 protein (MednaBio, …); test: BLI; remark: listed apart in the source
Method: as §3

[14] = biological target: T7, human FcRIIA protein (MednaBio, E1033); test: BLI; remark: listed apart in the source
Method: as §3

[15] = biological target: T8, human FcRn protein (MednaBio, E1032); test: BLI; remark: listed apart in the source
Method: as §3

[16] = biological target: T9, human FcγRI expressed on CHO cells (human, UniProt P12314 16-374); test: FACS, CHO cells expressing FcγRI
T9 construct: whole, on cells
T9 sequence (P12314 16-374): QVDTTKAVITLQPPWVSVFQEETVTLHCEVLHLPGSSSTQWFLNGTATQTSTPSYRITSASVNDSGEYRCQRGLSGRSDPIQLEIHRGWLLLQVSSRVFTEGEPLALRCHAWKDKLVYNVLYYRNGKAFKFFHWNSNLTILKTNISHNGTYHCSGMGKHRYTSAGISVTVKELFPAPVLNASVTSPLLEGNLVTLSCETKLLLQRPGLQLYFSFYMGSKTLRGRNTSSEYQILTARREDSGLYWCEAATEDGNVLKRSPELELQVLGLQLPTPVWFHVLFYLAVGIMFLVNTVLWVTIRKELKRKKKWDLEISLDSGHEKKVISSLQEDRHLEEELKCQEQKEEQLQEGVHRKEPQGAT
Method: as §1

binding result [1]: binds
binding result [2]: no binding (tested: 300 nM)
binding result [3]: no binding (tested: 300 nM)
binding result [4]: no binding (tested: 300 nM)
Kd [5]: 52 nM
koff [5]: 0.005 s⁻¹
kon [5]: 97000 M⁻¹ s⁻¹
binding result [6]: no binding (tested: 300 nM)
Kd [7]: 280 nM
koff [7]: 0.03 s⁻¹
kon [7]: 110000 M⁻¹ s⁻¹
Kd [8]: 22 nM
koff [8]: 0.0058 s⁻¹
kon [8]: 270000 M⁻¹ s⁻¹
B1: anti-CD137 IgG2 with Fc variant G2m9 (antibody)
heavy: EVQLVQSGAEVKKPGESLRISCKGSGYSFSTYWISWVRQMPGKGLEWMGKIYPGDSYTNYSPSFQGQVTISADKSISTAYLQWSSLKASDTAMYYCARGYGIFDYWGQGTLVTVSSASTKGPSVFPLAPCSRSTSESTAALGCLVKDYFPEPVTVSWNSGALTSGVHTFPAVLQSSGLYSLSSVVTVPSSNFGTQTYTCNVDHKPSNTKVDKTVERKCCVECPPCPAPPVAGPSVFLFPPKPKDTLMISRTPEVTCVVVDVEHEDPEVQFNWYVDGVEVHNAKTKPREEQFNSTFRVVSVLTVVHQDWLNGKEYKCKVSNKGFPAPIEKTISKTKGQPREPQVYTLPPSREEMTKNQVSLTCLVKGFYPSDIAVEWESNGQPENNYKTTPPMLDSDGSFFLYSKLTVDKSRWQQGNVFSCSVMHEALHNHYTQKSLSLSPGK
light: SYELTQPPSVSVSPGQTASITCSGDNIGDQYAHWYQQKPGQSPVLVIYQDKNRPSGIPERFSGSNSGNTATLTISGTQAMDEADYYCATYTGFGSLAVFGGGTKLTVLGQPKAAPSVTLFPPSSEELQANKATLVCLISDFYPGAVTVAWKADSSPVKAGVETTTPSKQSNNKYAASSYLSLTPEQWKSHRSYSCQVTHEGSTVEKTVAPTECS
notes: copies: 2 + 2

binding result [1]: no binding (tested: 10 ug/ml)
Kd [9]: 200 nM
koff [9]: 0.13 s⁻¹
kon [9]: 650000 M⁻¹ s⁻¹
binding result [10]: no binding (tested: 300 nM)
Kd [11]: 300 nM
koff [11]: 0.1 s⁻¹
kon [11]: 350000 M⁻¹ s⁻¹
binding result [12]: no binding (tested: 300 nM)
binding result [13]: no binding (tested: 300 nM)
Kd [14]: 440 nM
koff [14]: 0.11 s⁻¹
kon [14]: 250000 M⁻¹ s⁻¹
Kd [15]: 11 nM
koff [15]: 0.0078 s⁻¹
kon [15]: 700000 M⁻¹ s⁻¹
B2: anti-CD137 IgG1 with Fc variant G1m1 (antibody)
heavy: EVQLVQSGAEVKKPGESLRISCKGSGYSFSTYWISWVRQMPGKGLEWMGKIYPGDSYTNYSPSFQGQVTISADKSISTAYLQWSSLKASDTAMYYCARGYGIFDYWGQGTLVTVSSASTKGPSVFPLAPSSKSTSGGTAALGCLVKDYFPEPVTVSWNSGALTSGVHTFPAVLQSSGLYSLSSVVTVPSSSLGTQTYICNVNHKPSNTKVDKKVEPKSCDKTHTCPPCPAPELLSVFLFPPKPKDTLMISRTPEVTCVVVDVSHEDPEVKFNWYVDGVEVHNAKTKPREEQYNSTYRVVSVLTVLHQDWLNGKEYKCKVSNKALPAPIEKTISKAKGQPREPQVYTLPPSREEMTKNQVSLTCLVKGFYPSDIAVEWESNGQPENNYKTTPPVLDSDGSFFLYSKLTVDKSRWQQGNVFSCSVMHEALHNHYTQKSLSLSPGK
light: SYELTQPPSVSVSPGQTASITCSGDNIGDQYAHWYQQKPGQSPVLVIYQDKNRPSGIPERFSGSNSGNTATLTISGTQAMDEADYYCATYTGFGSLAVFGGGTKLTVLGQPKAAPSVTLFPPSSEELQANKATLVCLISDFYPGAVTVAWKADSSPVKAGVETTTPSKQSNNKYAASSYLSLTPEQWKSHRSYSCQVTHEGSTVEKTVAPTECS
notes: copies: 2 + 2

binding result [1]: no binding (tested: 10 ug/ml)
binding result [16]: no binding (tested: 10 ug/ml)
binding result [9]: no binding (tested: 300 nM)
binding result [10]: no binding (tested: 300 nM)
binding result [11]: no binding (tested: 300 nM)
binding result [12]: no binding (tested: 300 nM)
binding result [13]: no binding (tested: 300 nM)
Kd [14]: 17000 nM
koff [14]: 0.35 s⁻¹
kon [14]: 21000 M⁻¹ s⁻¹
Kd [15]: 21 nM
koff [15]: 0.0088 s⁻¹
kon [15]: 420000 M⁻¹ s⁻¹
B3: anti-CD137 IgG2 with Fc variant G2m10 (antibody)
heavy: EVQLVQSGAEVKKPGESLRISCKGSGYSFSTYWISWVRQMPGKGLEWMGKIYPGDSYTNYSPSFQGQVTISADKSISTAYLQWSSLKASDTAMYYCARGYGIFDYWGQGTLVTVSSASTKGPSVFPLAPCSRSTSESTAALGCLVKDYFPEPVTVSWNSGALTSGVHTFPAVLQSSGLYSLSSVVTVPSSNFGTQTYTCNVDHKPSNTKVDKTVERKCCVECPPCPAPEVSSVFLFPPKPKDTLMISRTPEVTCVVVDVSHEDPEVQFNWYVDGVEVHNAKTKPREEQFNSTFRVVSVLTVVHQDWLNGKEYKCKVSNKGFPAPIEKTISKTKGQPREPQVYTLPPSREEMTKNQVSLTCLVKGFYPSDIAVEWESNGQPENNYKTTPPMLDSDGSFFLYSKLTVDKSRWQQGNVFSCSVMHEALHNHYTQKSLSLSPGK
light: SYELTQPPSVSVSPGQTASITCSGDNIGDQYAHWYQQKPGQSPVLVIYQDKNRPSGIPERFSGSNSGNTATLTISGTQAMDEADYYCATYTGFGSLAVFGGGTKLTVLGQPKAAPSVTLFPPSSEELQANKATLVCLISDFYPGAVTVAWKADSSPVKAGVETTTPSKQSNNKYAASSYLSLTPEQWKSHRSYSCQVTHEGSTVEKTVAPTECS
notes: copies: 2 + 2
